How the values were obtained:
[1] = target: HPV-16 E7 wild type (E7WT) expressed by RMA-E7 transfectants (HPV-16) (UniProt P03129)
[2] = target: HPV-16 E7 wild type (E7WT) expressed by RMA-E7 transfectants (HPV-16) (UniProt P03129); remark: listed apart in the source

| Substance | 51Cr-release assay (after 1st in vitro restimulation), Specific Lysis (%) [1] [%] | 51Cr-release assay (after 1st in vitro restimulation), specific lysis [2] [%] |
| --- | --- | --- |
| in vitro restimulated spleen cells of C57BL/6 mice inoculated with RPBLAs containing RX3-E7SH (cells without a defined receptor) | 33 |  |
| in vitro restimulated spleen cells of C57BL/6 mice inoculated with RPBLAs containing RX3-E7SH and incomplete Freund's adjuvant (cells without a defined receptor) | 29 |  |
| in vitro restimulated spleen cells of C57BL/6 mice inoculated with RPBLAs containing RX3-Gfp (cells without a defined receptor) |  | 12 |
| in vitro restimulated spleen cells of C57BL/6 mice inoculated with the DNA vaccine pTHamp-E7SH (cells without a defined receptor) |  | 26 |
| in vitro restimulated spleen cells of C57BL/6 mice inoculated with the empty plasmid pTHamp (cells without a defined receptor) | 8 |  |
